Experimental data from patent publication US20070031849A1, “Three-dimensional structure of DNA recombination/repair protein and use thereof” (priority 2001, published 2007).
Substitutions are numbered along the chain they refer to. Numbers in names are those of the source.

What was measured:
[1] = target: T1, HsRad52 protein (HsRad521-212) (Homo sapiens, UniProt P43351); assay: Screening for HsRad52-binding compounds by one-dimensional 1H-NMR; settings: calculated from signal intensity of the NMR spectrum; binding force of Compound A defined as 1
T1 construct: hexahistidine (N, cleaved yes); made in house; host or cells: E. coli JM109 (DE3), pET15-b
T1 sequence (P43351 1-212): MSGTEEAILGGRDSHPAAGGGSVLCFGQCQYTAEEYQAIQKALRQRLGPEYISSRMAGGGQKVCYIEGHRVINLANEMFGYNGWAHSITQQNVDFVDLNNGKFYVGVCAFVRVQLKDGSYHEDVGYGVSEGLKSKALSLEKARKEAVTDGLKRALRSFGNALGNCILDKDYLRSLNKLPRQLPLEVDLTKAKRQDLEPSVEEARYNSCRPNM
Protocol: Among the ligand candidate compounds obtained in Example 8, one candidate compound was in view of the binding free energy change (ΔG) obtained by AutoDock and solubility. The compound was dissolved in DMSO-d6 to be adjusted to 455.7 μM. The HsRad521-212 protein prepared in Example 3 was dissolved to 152 μM using buffer solution A (dissolved in heavy water to 10 mM Tris-dll, pH 7.5)/200 mM KCl). Using them, two types of samples namely the ligand candidate compound alone and the ligand candidate compound to which the HsRad52 protein was added at 1:1 were prepared.
The final concentration of the ligand candidate compound is 21.7 μM.
The final concentrations of the ligand candidate compound and the HsRad52 protein are 21.7 μM, respectively.
One-dimensional ^1H-NMR of the individual samples was measured, to observe whether or not any change existed between prior to and after the addition of HsRad52 protein. Consequently, the NMR spectrum of a sample of ID AK968-41170131 with a chemical name of cis-6-[4-(4-isobutyl-phenyl)-5-methyl-thiazol-2-ylcarbamoyl]-3,4-dimethyl-cyclohex-3-enec arboxylic acid (Compound A, −11.71 kcal/mol) as such ligand candidate compound is shown in FIGS. 5 through 7. […] In FIG. 6, a slight increase of the base line due to the mixing with the protein can be observed, but apparently, Compound A-derived two signals around 7.5 ppm disappeared.
Herein, all the NMR spectra were taken in deuterium, using Bruker DRX500 NMR spectrophotometer at 298 K.
Using such method, the plural ligand candidate compounds obtained in Example 8 were adjusted to various concentrations to measure the NMR spectra. Compounds detected with the interaction with HsRad52 are shown below in Table 4. Herein, the strength of a binding force relatively calculated from the signal intensity of the NMR spectrum is shown as relative binding force, provided that the binding force of the Compound A is defined as 1.

[2] = target: T2, HsRad52(1-212) wild type (Homo sapiens, UniProt P43351 SEQ:1-212); assay: EMSA; 50 mM Hepes-KOH pH 7.5, 40 mM KCl, 1 mM MgCl2, 37 C, glutaraldehyde fixed; 0.25-2 uM protein; complex formation inhibited by Compound A; settings: tags: His6 removed by thrombin; chain copies: 11 (undecameric ring, stated); label: 5'-32P
T2 sequence: T1 sequence (P43351 1-212)

[3] = system: SAT-1 single-stranded DNA; assay: Gel shift assay: single-stranded DNA binding of HsRad521-212 point mutants; settings: 0.25 to 2 μM mutant; compared with wild type HsRad521-212
Protocol: The single-stranded and double-stranded DNAs binding activities of the six types of point mutants thus prepared from HsRad521-212 were detected by gel shift assay method. The substrate DNA used by the method was prepared as described below. The pGsat4 of double-stranded DNA was prepared by inserting a 198-bp DNA fragment from human α-satellite into a plasmid PGEM-T East vector (manufactured by Promega). The 3.2-kb plasmid DNA was prepared by a gentle lysis method using sarcosyl, without alkali modification of the host E. coli, so as to avoid the irreversible denaturation. As the single-stranded DNA, a 50-base oligonucleotide purified by HPLC as shown in SEQ ID NO:2 was purchased from Roche Biochemical.
The 5′ terminus of the oligonucleotide was labeled with radioactivity in the presence of [γ^32P] ATP using T4 polynucleotide kinase (New England Biolabs) and then purified on a column Chromaspin-10 (manufactured by Clontech).
For gel shift assay, a reaction mixtures containing final concentratins of 50 mM Hepes-KOH (pH 7.5), 40 mM KCl, 1 mM MgCl2, 0.1 mg/ml BSA, 1 mM DTT, 2% glycerol and 0.25 to 2 μM mutants of HsRad521-212 was used. For single-stranded DNA binding assay, 1 μl of 1 μM ^32P-labeled SAT-1 single-stranded DNA (nucleotide) was mixed with 9 μl of the reaction mixture, which was incubated at 37° C. for 5 minutes. Subsequently, 1 μl of 12% […] solution was added, to immobilize HsRad52 and the single-stranded DNA. After incubating for 20 minutes, a 6-fold volume of staining solution for electrophoresis was added. The reaction mixture was resolved by 1% agarose gel electrophoresis in 0.5×TBE buffer at 3.3 V/cm and ambient temperature. After electrophoresis, the gel was dried for detection by autoradiography. The amount of the free single-stranded DNA was assayed by an image analyzer BAS2500 manufactured by Fuji Film. […] Compared with the wild type HsRad521-212, the single-stranded DNA binding activity of all of the point mutants was lowered.

In the case of `CC1=C(C)CC(C(=O)Nc2nc(-c3ccc(C)cc3C)c(C)s2)C(C(=O)O)C1` (stereo not drawn) [D, 6-[4-(2,4-Dimethyl-phenyl)-5-methyl-thiazol-2-ylcarbamoyl]-3,4-dimethyl-cyclohex-3-enecarboxylic acid], the “Relative Binding force” value [1] is reported as 0.2.

In the case of `CCCCc1ccc(-c2nc(NC(=O)C3C4CCC(O4)C3C(=O)O)sc2C)cc1` (stereo not drawn) [C, 3-[4-(4-Butyl-phenyl)-5-methyl-thiazol-2-ylcarbamoyl]-7-oxa-bicyclo[2.2.1]heptane-2-carboxylic acid], the “Relative Binding force” value [1] is reported as 0.5.

With `CCCc1ccc(-c2nc(NC(=O)C3CC(C)=C(C)CC3C(=O)O)sc2C)cc1` (stereo not drawn) [E, 3,4-Dimethyl-6-[5-methyl-4-(4-propyl-phenyl)-thiazol-2-ylcarbamoyl]-cyclohex-3-enecarboxylic acid] the “Relative Binding force” value [1] was 0.5.

`CC1=C(C)CC(C(=O)Nc2nc(-c3ccc(C(C)C)cc3)c(C)s2)C(C(=O)O)C1` (stereo not drawn) [Compound B, 6-[4-(4-Isopropyl-phenyl)-5-methyl-thiazol-2-ylcarbamoyl]-3,4-dimethyl-cyclohex-3-enecarboxylic acid] was tested, and the “Relative Binding force” value [1] was 0.5.

ATTTCATGCTAGACAGAAGAATTCTCAGTAACTTCTTTGTGCTGTGTGTA (ssDNA) [SAT-1 50-mer]: binds [2].

B1: R55A: point mutant of HsRad521-212, arginine at position 55 substituted with alanine (protein)
chain: MSGTEEAILGGRDSHPAAGGGSVLCFGQCQYTAEEYQAIQKALRQRLGPEYISSAMAGGGQKVCYIEGHRVINLANEMFGYNGWAHSITQQNVDFVDLNNGKFYVGVCAFVRVQLKDGSYHEDVGYGVSEGLKSKALSLEKARKEAVTDGLKRALRSFGNALGNCILDKDYLRSLNKLPRQLPLEVDLTKAKRQDLEPSVEEARYNSCRPNMALGHPQLQQVTSPSRPSHAVIPADQDCSSRSLSSSAVESEATHQRKLRQKQLQQQFRERMEKQQVRVSTPSAEKSEAAPPAPPVTHSTPVTVSEPLLEKDFLAGVTQELIKTLEDNSEKWAVTPDAGDGVVKPSSRADPAQTSDTLALNNQMVTQNRTPHSVCHQKPQAKSGSWDLQTYSADQRTTGNWESHRKSQDMKKRKYDPS
B1 was tested, and the “Single-stranded DNA binding activity” value [3] was “lost most of the binding activity to the single-stranded DNA”.

B2: Y65A: point mutant of HsRad521-212, tyrosine at position 65 substituted with alanine (protein)
chain: B1 chain with A55R, Y65A
B2 was tested, and the “Single-stranded DNA binding activity” value [3] was “lost most of the binding activity to the single-stranded DNA”.

B3: H69A: point mutant of HsRad521-212, histidine at position 69 substituted with alanine (protein)
chain: B1 chain with A55R, H69A
In the case of B3, the “Single-stranded DNA binding activity” value [3] is reported as “lost most of the binding activity to the single-stranded DNA”.

B4: R70A: point mutant of HsRad521-212, arginine at position 70 substituted with alanine (protein)
chain: B1 chain with A55R, R70A
In the case of B4, the “Single-stranded DNA binding activity” value [3] is reported as “lost most of the binding activity to the single-stranded DNA”.
